From patent US20210332382A1 come the findings set out here.

Test [1] has as its target Adenovirus delta 24, serotype 5 virus with a modified knob from serotype 3 adenovirus (AdV 5/3), whole virus particles. Kind of test: MP-SPR, peptide over AdV on APTES sensor, A195 buffer, Min (after flush, no peptide in solution).
Test [2] shares this target. The test is described as follows: MP-SPR, peptide over AdV on APTES sensor, A195 buffer, Max (100 µM peptide in solution).
Test [3] has the same target. The test is described as follows: MP-SPR, peptide over AdV on APTES sensor, water, Min (after flush, no peptide in solution).
The target is the same in test [4]. The test is described as follows: MP-SPR, peptide over AdV on APTES sensor, water, Max (100 µM peptide in solution).

B1: PEP1456 = …-… (9K-MAGE-A3 peptide, MAGE-A3 161-180 with a 9-lysine tail at the amino terminus) (peptide)
peptide: KKKKKKKKKVFGIELMEVDPIGHLYIFAT
Consider B1, for which, in test [1], the Adsorbed Peptides SPR response was 0.276 Δ°, the Mass Peptide turned out to be 1.3 ng, the Mass/Area Peptide came to 166 ng/cm^2 and the Moles peptide was 3.81e-13 mol. Besides, in test [2], the Adsorbed Peptides SPR response was 0.371 Δ°, the Mass Peptide amounted to 1.75 ng, the Mass/Area Peptide worked out at 223 ng/cm^2 and the Moles peptide worked out at 5.12e-13 mol. Also, in test [3], the Adsorbed Peptides SPR response is 0.029 Δ°, the Mass Peptide is 0.14 ng, the Mass/Area Peptide was determined as 17.4 ng/cm^2 and the Moles peptide was determined as 4e-14 mol. In test [4], the Adsorbed Peptides SPR response was 0.13 Δ°, the Mass Peptide was 0.61 ng, the Mass/Area Peptide stood at 78.2 ng/cm^2 and the Moles peptide was found to be 1.8e-13 mol.

B2: PEP1508 = KKKKKK-… (6K-NY-ESO-1 peptide p91-110, NY-ESO-1 91-110 with a 6-lysine tail at the amino terminus) (peptide)
peptide: KKKKKKYLAMPFATPMEAELARRSLA
Take B2: in test [1], the Adsorbed Peptides SPR response was 0.012 Δ°, the Mass Peptide came to 0.06 ng, the Mass/Area Peptide came to 7.2 ng/cm^2 and the Moles peptide amounted to 1.88e-14 mol. In test [2], the Adsorbed Peptides SPR response was 0.044 Δ°, the Mass Peptide came out at 0.21 ng, the Mass/Area Peptide was found to be 26.4 ng/cm^2 and the Moles peptide is 6.89e-14 mol. Further, in test [3], the Adsorbed Peptides SPR response was 0.0184 Δ°, the Mass Peptide turned out to be 0.09 ng, the Mass/Area Peptide was 11 ng/cm^2 and the Moles peptide turned out to be 2.88e-14 mol. Also, in test [4], the Adsorbed Peptides SPR response is 0.0386 Δ°, the Mass Peptide stood at 0.18 ng, the Mass/Area Peptide stood at 23.2 ng/cm^2 and the Moles peptide came to 6.05e-14 mol.

B3: PEP1455 = KKKKKK-… (6K-MAGE-A3 peptide, MAGE-A3 161-180 with a 6-lysine tail at the amino terminus) (peptide)
peptide: KKKKKKVFGIELMEVDPIGHLYIFAT
For the molecule B3, in test [1], the Adsorbed Peptides SPR response was 0.0174 Δ°, the Mass Peptide was found to be 0.08 ng, the Mass/Area Peptide was 10.4 ng/cm^2 and the Moles peptide is 2.7e-14 mol. Further, in test [2], the Adsorbed Peptides SPR response is 0.078 Δ°, the Mass Peptide was determined as 0.37 ng, the Mass/Area Peptide was determined as 46.8 ng/cm^2 and the Moles peptide is 1.21e-13 mol. Besides, in test [3], the Adsorbed Peptides SPR response is 0.0674 Δ°, the Mass Peptide came out at 0.32 ng, the Mass/Area Peptide came out at 40.4 ng/cm^2 and the Moles peptide was 1.05e-13 mol. For the same molecule, in test [4], the Adsorbed Peptides SPR response is 0.153 Δ°, the Mass Peptide was 0.72 ng, the Mass/Area Peptide came out at 91.9 ng/cm^2 and the Moles peptide came out at 2.38e-13 mol.
